Our source for the ratio to parent values is publication PMC11334519.

For experiment [1], the target named is 6×Myc-tagged ORF24 BD [1–400 aa]. The experiment can be described thus: pull-down.
A further experiment deals with 3×FLAG-ORF66. Description: pull-down.
[2] abbreviates: 293T cells cotransfected, lysates pulled down with S-protein-agarose capturing 2×S-ORF34, parent: 1.00.

As to 2×S-tagged KSHV ORF34 WT C170A, the ratio to parent in experiment [1] (setting [2]) stood at 0.32; in experiment [1] (parent: 1.000), 0.325; with 3×FLAG-ORF66 (setting [2]), 0.05; with 3×FLAG-ORF66 (parent: 1.000) it was 0.057.
For 2×S-tagged KSHV ORF34 WT C175A, in that order: 0.34, 0.345, 0.04 and 0.039.
Turning to 2×S-tagged KSHV ORF34 WT C256A, the results for the ratio to parent in experiment [1] (setting [2]) and in experiment [1] (parent: 1.000) were 0.11 and 0.109, respectively.
Regarding 2×S-tagged KSHV ORF34 WT C259A, the ratio to parent in experiment [1] (setting [2]) came out at 0.03; in experiment [1] (parent: 1.000) it was 0.027.
Turning to 2×S-tagged KSHV ORF34 WT D154A, the ratio to parent came to 0.51 in experiment [1] (setting [2]), 0.512 in experiment [1] (parent: 1.000), 0.28 with 3×FLAG-ORF66 (setting [2]) and 0.282 in the experiment with 3×FLAG-ORF66 (parent: 1.000).
As to 2×S-tagged KSHV ORF34 WT E41A; T42A, the ratio to parent in experiment [1] (setting [2]) was 0.88; in experiment [1] (parent: 1.000), 0.877; in the experiment with 3×FLAG-ORF66 (setting [2]) it was 1.03; with 3×FLAG-ORF66 (parent: 1.000), 1.03.
Take 2×S-tagged KSHV ORF34 WT F47A: the ratio to parent in experiment [1] (setting [2]) worked out at 0.86; in experiment [1] (parent: 1.000), 0.859; with 3×FLAG-ORF66 (setting [2]) it was 1.09; in the experiment with 3×FLAG-ORF66 (parent: 1.000), 1.09.
On to 2×S-tagged KSHV ORF34 WT G165A, for which the ratio to parent was found to be 0.68 in experiment [1] (setting [2]), 0.68 in experiment [1] (parent: 1.000), 0.02 in the experiment with 3×FLAG-ORF66 (setting [2]) and 0.022 with 3×FLAG-ORF66 (parent: 1.000).
Take 2×S-tagged KSHV ORF34 WT G182A: the ratio to parent in experiment [1] (setting [2]) is 1.28; in experiment [1] (parent: 1.000), 1.29; in the experiment with 3×FLAG-ORF66 (setting [2]) it was 0.36; with 3×FLAG-ORF66 (parent: 1.000), 0.359.
On to 2×S-tagged KSHV ORF34 WT L188A; L189A, for which the values for the ratio to parent in experiment [1] (setting [2]) and in experiment [1] (parent: 1.000) were 0.5 and 0.503, respectively.
Take 2×S-tagged KSHV ORF34 WT Q264A; N265A: the ratio to parent in experiment [1] (setting [2]) stood at 0.67; in experiment [1] (parent: 1.000), 0.665.
Regarding 2×S-tagged KSHV ORF34 WT R234A, the ratio to parent in experiment [1] (setting [2]) was 0.74; in experiment [1] (parent: 1.000), 0.74; with 3×FLAG-ORF66 (setting [2]), 0.77; with 3×FLAG-ORF66 (parent: 1.000) it was 0.775.
2×S-tagged KSHV ORF34 WT S168A: the ratio to parent came to 0.94 in experiment [1] (setting [2]), 0.94 in experiment [1] (parent: 1.000), 0.97 with 3×FLAG-ORF66 (setting [2]) and 0.969 with 3×FLAG-ORF66 (parent: 1.000).
Take 2×S-tagged KSHV ORF34 WT V50A: the ratio to parent turned out to be 0.86 in experiment [1] (setting [2]), 0.861 in experiment [1] (parent: 1.000), 1.11 with 3×FLAG-ORF66 (setting [2]) and 1.11 in the experiment with 3×FLAG-ORF66 (parent: 1.000).
Consider 2×S-tagged KSHV ORF34 WT W160A, for which the ratio to parent in experiment [1] (setting [2]) was determined as 0.47; in experiment [1] (parent: 1.000), 0.473; in the experiment with 3×FLAG-ORF66 (setting [2]), 0.29; in the experiment with 3×FLAG-ORF66 (parent: 1.000) it was 0.289.
As for 2×S-tagged KSHV ORF34 WT Y194A, the ratio to parent in experiment [1] (setting [2]) worked out at 0.64; in experiment [1] (parent: 1.000), 0.645; with 3×FLAG-ORF66 (setting [2]), 0.003; in the experiment with 3×FLAG-ORF66 (parent: 1.000), 0.003.
Turning to 2×S-tagged KSHV ORF34 WT Y215A, the ratio to parent is 1.02 in experiment [1] (setting [2]), 1.02 in experiment [1] (parent: 1.000), 0.16 with 3×FLAG-ORF66 (setting [2]) and 0.167 in the experiment with 3×FLAG-ORF66 (parent: 1.000).
For the substance 2×S-tagged KSHV ORF34 WT Y310A, the ratio to parent came to 0.96 in experiment [1] (setting [2]), 0.956 in experiment [1] (parent: 1.000), 0.17 with 3×FLAG-ORF66 (setting [2]) and 0.173 with 3×FLAG-ORF66 (parent: 1.000).
